Experimental data from patent publication US20200392225A1 (Novartis, published 2020).
Substitutions are numbered along the chain they refer to. Each block holds one binder with its values, some of them ahead of it.

Experiments:
[1] = target: T1, human NPR1 expressed on CHO-K1 cells (human, UniProt P16066 33-1061); assay: cell-based or functional assay
T1 sequence: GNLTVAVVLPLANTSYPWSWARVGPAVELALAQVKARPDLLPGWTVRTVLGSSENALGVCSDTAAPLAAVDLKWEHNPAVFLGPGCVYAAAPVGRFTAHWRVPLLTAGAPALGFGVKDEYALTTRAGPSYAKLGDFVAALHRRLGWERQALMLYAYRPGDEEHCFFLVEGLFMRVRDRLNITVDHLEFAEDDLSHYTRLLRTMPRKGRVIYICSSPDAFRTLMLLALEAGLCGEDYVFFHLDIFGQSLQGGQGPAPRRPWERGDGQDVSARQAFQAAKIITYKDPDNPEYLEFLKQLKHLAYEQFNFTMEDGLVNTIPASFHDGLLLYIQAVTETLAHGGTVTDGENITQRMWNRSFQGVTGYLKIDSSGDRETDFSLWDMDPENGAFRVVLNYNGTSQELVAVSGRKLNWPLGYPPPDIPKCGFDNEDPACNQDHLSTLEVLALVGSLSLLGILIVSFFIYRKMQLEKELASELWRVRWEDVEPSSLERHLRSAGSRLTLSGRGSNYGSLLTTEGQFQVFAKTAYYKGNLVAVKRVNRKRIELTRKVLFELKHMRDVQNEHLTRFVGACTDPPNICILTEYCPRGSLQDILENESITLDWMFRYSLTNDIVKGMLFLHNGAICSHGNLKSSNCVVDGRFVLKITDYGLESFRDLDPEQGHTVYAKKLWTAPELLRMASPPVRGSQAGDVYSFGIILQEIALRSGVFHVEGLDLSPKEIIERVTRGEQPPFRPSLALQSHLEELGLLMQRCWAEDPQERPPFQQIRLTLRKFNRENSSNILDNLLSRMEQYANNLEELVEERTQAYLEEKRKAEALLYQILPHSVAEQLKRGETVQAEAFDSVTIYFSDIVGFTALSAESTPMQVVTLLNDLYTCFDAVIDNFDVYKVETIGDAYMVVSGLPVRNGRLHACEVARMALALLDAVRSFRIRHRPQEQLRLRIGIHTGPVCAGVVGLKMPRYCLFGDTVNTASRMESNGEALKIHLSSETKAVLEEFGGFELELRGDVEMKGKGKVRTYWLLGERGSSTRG

[2] = target: T1, human NPR1 expressed on CHO-K1 cells; assay: cell-based or functional assay; remark: listed apart in the source
[3] = target: T2, human NPR1 (Natriuretic Peptide Receptor 1), recombinant antigen (human, UniProt P16066 33-473); assay: ELISA, 1 uM IgG
T2 construct: also called hNPR1; NPR1-hFc
T2 sequence: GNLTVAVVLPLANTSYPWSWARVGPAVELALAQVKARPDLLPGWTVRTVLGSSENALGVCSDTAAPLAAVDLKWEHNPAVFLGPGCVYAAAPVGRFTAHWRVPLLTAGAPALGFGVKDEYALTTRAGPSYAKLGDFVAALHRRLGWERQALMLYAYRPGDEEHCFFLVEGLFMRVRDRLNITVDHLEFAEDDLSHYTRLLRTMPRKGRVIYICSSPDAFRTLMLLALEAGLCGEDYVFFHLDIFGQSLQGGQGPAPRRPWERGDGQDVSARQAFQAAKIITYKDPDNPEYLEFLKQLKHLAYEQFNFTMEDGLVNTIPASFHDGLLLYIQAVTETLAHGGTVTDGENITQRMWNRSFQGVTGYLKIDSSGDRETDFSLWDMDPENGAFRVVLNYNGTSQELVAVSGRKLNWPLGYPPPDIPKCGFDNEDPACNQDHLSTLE

[4] = target: T1, human NPR1 expressed on CHO-K1 cells; assay: cell-based or functional assay; remark: listed apart in the source
[5] = target: T1, human NPR1 expressed on CHO-K1 cells; assay: flow cytometry, 1 uM IgG
human NPR1-ANP complex [6] = target: T3, human NPR1-ANP complex (human, UniProt P01160 124-151, limits assumed); assay: ELISA, 1 uM IgG, +100 nM ANP
T3 construct: Receptor antigen measured in the presence of ANP; also called hNPR1 + ANP; hNPR1-ANP-complex
T3 sequence: T2 sequence
T3 sequence (peptide): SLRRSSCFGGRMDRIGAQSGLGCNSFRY

rat NPR1-ANP complex [7] = target: T4, rat NPR1-ANP complex (rat); assay: ELISA, 1 uM IgG, +100 nM ANP
T4 construct: Rat receptor antigen measured in the presence of ANP; also called rNPR1 + ANP; rNPR1-ANP-complex

[8] = target: T5, human NPR1 expressed on CHO-K1 cells in the presence of ANP (human, UniProt P01160 124-151); assay: flow cytometry, 1 uM IgG, +100 nM ANP
T5 construct: also called hNPR1 CHO K1 + 100 nM ANP
T5 sequence: T1 sequence
T5 sequence (peptide): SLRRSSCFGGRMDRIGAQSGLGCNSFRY

rat NPR1-ANP complex [9] = target: T4, rat NPR1-ANP complex; assay: ELISA, IgG titrated on the antigen with 250 fold molar excess of ANP
human NPR1-ANP complex [10] = target: T3, human NPR1-ANP complex; assay: ELISA, IgG titrated on the antigen with 250 fold molar excess of ANP [cont.]

T4 sequence (P18910 29-469, one chain of several): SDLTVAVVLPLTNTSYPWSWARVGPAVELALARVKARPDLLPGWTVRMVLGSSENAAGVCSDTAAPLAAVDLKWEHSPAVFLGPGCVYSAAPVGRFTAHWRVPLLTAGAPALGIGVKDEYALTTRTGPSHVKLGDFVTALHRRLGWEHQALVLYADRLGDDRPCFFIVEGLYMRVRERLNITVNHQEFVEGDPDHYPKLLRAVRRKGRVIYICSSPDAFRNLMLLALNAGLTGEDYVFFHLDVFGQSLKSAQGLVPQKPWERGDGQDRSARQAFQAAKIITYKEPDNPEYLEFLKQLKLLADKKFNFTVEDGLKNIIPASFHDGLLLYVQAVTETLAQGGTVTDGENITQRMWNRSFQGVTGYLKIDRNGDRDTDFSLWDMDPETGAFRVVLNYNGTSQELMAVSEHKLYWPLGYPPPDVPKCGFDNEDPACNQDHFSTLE

B2: WW01 FabCys (Fab, V domains shown)
VH: QVQLLESGGGLVQPGGSLRLSCAASGFTFNTHYIHWVRQAPGKGLEWVSSISGSGSNTYYADSVKGRFTISRDNSKNTLYLQMNSLRAEDTAVYYCARERGYVYYHMFDPWGQGTLVTVSS
VL: DIVLTQSPATLSLSPGERATLSCRASQSITRNYLAWYQQKPGQAPRLLIYGASSRATGIPARFSGSGSGTDFTLTISSLEPEDFAVYYCQQHSMYPRTFGQGTKVEIK
- cGMP conc [nM] at 2 uM FabCys, +0.075 nM ANP [2]: 121 nM
- cGMP conc [nM] at 2 uM FabCys, without ANP [2]: 30 nM

B3: WW06 FabCys (Fab, V domains shown)
VH: QVQLVQSGAEVKKPGESLKISCKGSGYSFTSYWIAWVRQMPGKGLEWMGRIDPDNSYTRYSPSFQGQVTISADKSISTAYLQWSSLKASDTAMYYCARWLSPGYALGEQPAGMDHWGQGTLVTVSS
VL: DIVLTQPPSVSGAPGQRVTISCTGSSSNIGAGYAVHWYQQLPGTAPKLLIYSNNKRPSGVPDRFSGSKSGTSASLAITGLQAEDEADYYCQSYDLQKSSRVFGGGTKLTVL
- cGMP conc [nM] at 2 uM FabCys, +0.075 nM ANP [2]: 251 nM
- cGMP conc [nM] at 2 uM FabCys, without ANP [2]: 281 nM

B7: WW03 FabCys (Fab, V domains shown)
VH: QVQLLESGGGLVQPGGSLRLSCAASGFTFSSYWMNWVRQAPGKGLEWVSAISSDGSYTYYADSVKGRFTISRDNSKNTLYLQMNSLRAEDTAVYYCARDRYSMIYSYGAGAFDYWGQGTLVTVSS
VL: DIQMTQSPSSLSASVGDRVTITCRASQGISSYLAWYQQKPGKAPKLLIYTASTLQSGVPSRFSGSGSGTDFTLTISSLQPEDFATYYCMQSYEKPRTFGQGTKVEIK
- cGMP conc [nM] at 2 uM FabCys, +0.075 nM ANP [2]: 108 nM
- cGMP conc [nM] at 2 uM FabCys, without ANP [2]: 32 nM

B8: YY07 FabCys (Fab, V domains shown)
VH: EVQLVQSGAEVKKPGESLKISCKGSGYSFTSYWISWVRQMPGKGLEWMGIIYPGTSYTRYSPSFQGQVTISADKSISTAYLQWSSLKASDTAMYYCARGSLPGLLGFDHWGQGTLVTVSS
VL: QSVLTQPPSVSGAPGQRVTISCTGSSSNIGAGYDVHWYQQLPGTAPKLLIYGNSNRPNGVPDRFSGSKSGTSASLAITGLQAEDEADYYCQSYDSPTSSSVFGGGTKLTVL
- cGMP conc [nM] at 1 uM FabCys, +0.075 nM ANP [1]: 88 nM
- cGMP conc [nM] at 1 uM FabCys, without ANP [1]: 77 nM

B10: XX04 IgG (antibody, V domains shown)
VH: B7 VH
VL: DIQMTQSPSSLSASVGDRVTITCRASQGISSYLAWYQQKPGKAPKLLIYTASTLQSGVPSRFSGSGSGTDFTLTISSLQPEDFATYYCQQEWVKPRTFGQGTKVEIKR
notes: also called XX04_LALA
- EC50 (read off the curve) (rat NPR1-ANP complex [9]): ~0.2 nM

B12: XX03 IgG (antibody, V domains shown)
VH: B7 VH with Q1E, A50V, S52E, D54K, S56N, T58I, Y59F
VL: B10 VL with Q89M, E91S, W92Y, V93E
notes: also called XX03_LALA
- EC50 (read off the curve) (rat NPR1-ANP complex [9]): ~0.2 nM

The next lines start with the values.

- cGMP conc [nM] at 1 uM FabCys, +0.075 nM ANP [1]: 75 nM
- cGMP conc [nM] at 1 uM FabCys, without ANP [1]: 20 nM
B1: YY06 FabCys (Fab, V domains shown)
VH: EVQLLESGGGLVQPGGSLRLSCAASGFTFSSYAISWVRQAPGKGLEWVSAISGSGGSTYYAESVKGRFTISRDNSKNTLYLQMNSLRAEDTAVYYCARPYLGDRRSYGFDHWGQGTLVTVSS
VL: QSALTQPASVSGSPGQSITISCTGTSSDVGSYNLVSWYQQHPGKAPKLMIYEGSKRPSGVSNRFSGSKSGNTASLTISGLQAEDEADYYCSSYGFHIVVVVFGGGTKLTVL

- cGMP conc [nM] at 1 uM FabCys, +0.075 nM ANP [1]: 46 nM
- cGMP conc [nM] at 1 uM FabCys, without ANP [1]: 15 nM
B4: YY01 FabCys (Fab, V domains shown)
VH: EVQLVESGGGLVQPGGSLRLSCAASGFTFSSYWISWVRQAPGKGLEWVANIKQSGSETYYVESVKGRFTISRDNAKNSLYLQMNSLRAEDTAVYYCARSLRRRSTEHAGFDVWGQGTLVTVSS
VL: B7 VL with S31N, A43V, T50A, F83V, M89Q, S91A, Y92D, E93K, K94F, R96Y

- ELISA IgG binding at 1 uM IgG (unit not given) [3]: 54
- cGMP conc [nM] at 1 uM IgG, +0.075 nM ANP [4]: 14 nM
- cGMP conc [nM] at 1 uM IgG, without ANP [4]: 5 nM
- flow cytometry S/BG [5]: 35 S/BG
- ELISA IgG binding at 1 uM IgG (unit not given) (human NPR1-ANP complex [6]): 76
- ELISA IgG binding at 1 uM IgG (unit not given) (rat NPR1-ANP complex [7]): 50
- flow cytometry S/BG [8]: 21 S/BG
B5: YY01 IgG (YY01_LALA) (antibody, V domains shown)
VH: B4 VH
VL: B10 VL with S31N, A43V, T50A, F83V, E91A, W92D, V93K, K94F, R96Y

- cGMP conc [nM] at 1 uM FabCys, +0.075 nM ANP [1]: 67 nM
- cGMP conc [nM] at 1 uM FabCys, without ANP [1]: 18 nM
B6: YY04 FabCys (Fab, V domains shown)
VH: EVQLVESGGGLVKPGGSLRLSCAASGFTFSNYWISWVRQAPGKGLEWVGRIKSKTYGGTTDYAEPVKGRFTISRDDSKNTLYLQMNSLKTEDTAVYYCAREKYSIRARGHGDYGFDVWGQGTLVTVSS
VL: B7 VL with S31N, A43V, T50A, F83V, M89Q, S91G, E93H, K94A, R96F

- cGMP conc [nM] at 1 uM FabCys, +0.075 nM ANP [1]: 227 nM
- cGMP conc [nM] at 1 uM FabCys, without ANP [1]: 207 nM
B9: YY05 FabCys (Fab, V domains shown)
VH: B8 VH with S100A, L101V, P102A, L104Q
VL: B8 VL with N58S, D94Y, S95T, P96S, T97S, S98H, S99G, S100P

- ELISA IgG binding at 1 uM IgG (unit not given) (human NPR1-ANP complex [6]): 60
- ELISA IgG binding at 1 uM IgG (unit not given) (rat NPR1-ANP complex [7]): 54
- flow cytometry S/BG [8]: 33 S/BG
- EC50 (read off the curve) (human NPR1-ANP complex [10]): ~0.3 nM
B11: YY04 IgG (YY04_LALA) (antibody, V domains shown)
VH: B6 VH
VL: B10 VL with S31N, A43V, T50A, F83V, E91G, W92Y, V93H, K94A, R96F
